Test results reported in the supplement of paper PMC9170038.

System: MS2 coat protein
Assay: apparent KD of MS2 coat protein; designed switch direction (-1 OFF switch, 1 ON switch): -1; higher = weaker reporter binding
Method in brief: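 Normalised cluster fluorescence was curve-fitted, and each design's median over clusters is its apparent KD. Before this, SNAP-549-labelled MS2 coat protein was titrated from 0.7 or 1.5 nM, doubling to 3 µM, over RNA switches transcribed on Illumina chips by stalled E. coli RNA polymerase. Titrations had no input, 200 uM small-molecule ligand, or an oligonucleotide input, and steps lasted 0.8–1.5 h (lowest) to 10–20 min (highest).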

[1] = Eterna round: R95, input ligand: FMN 200 uM
[2] = Eterna round: R95, input ligand: microRNA oligo, concentration not stated
[3] = Eterna round: R95, input ligand: none
[4] = input ligand: microRNA oligo, concentration not stated

AGUACUAACACGAAAGUGUUAGUACAAUAAGCUUGUGGAACAUGAGGAUCACCCAUGUCCUCAUAAGCUCGUCUUAG [Mat - Sensor v3 - Turn-off var 2 - D26] (puzzle: Sensor v3, turn-off variant 2)
apparent KD of MS2 coat protein [1]: 15.9 nM | apparent KD of MS2 coat protein [2]: 62.3 nM | apparent KD of MS2 coat protein [3]: 13 nM

AAAAUAAAGAUAGGAUAUGCAGUAUAGCAAGAUCCGGACAUGAGGAUCACCCAUGUACUUCGAAAGCAGAAGGAUCAAACAAAA [Zamale] (Eterna round: R96, puzzle: Exclusion NG 2)
apparent KD of MS2 coat protein (input ligand: FMN 200 uM): 30.3 nM | apparent KD of MS2 coat protein [4]: 30 nM | apparent KD of MS2 coat protein (input ligand: none): 26.6 nM

GGUCAGAUGGUAGGAUAUCCAUAUCGAGUGACCUUUUCAUAACAUGAGGAUCACCCAUGUCGGUGGGAGAAGGGCCGUACGGCG [salish99_ExNG02_R04_017] (Eterna round: R96, puzzle: Exclusion NG 2)
apparent KD of MS2 coat protein (input ligand: FMN 200 uM): 120 nM | apparent KD of MS2 coat protein [4]: 79 nM | apparent KD of MS2 coat protein (input ligand: none): 112 nM

ACAUGAGGAUCACCCAUGUCCGGCUGGUCUGUUCCGGCUGUCGAGGAUAUAGUUCGGUGUUCGCGCUAGAAGGCGGGAGCUGGA [Aenatbe mod 52] (Eterna round: R96, puzzle: Exclusion NG 3)
apparent KD of MS2 coat protein (input ligand: FMN 200 uM): 150 nM | apparent KD of MS2 coat protein [4]: 104 nM | apparent KD of MS2 coat protein (input ligand: none): 123 nM

CUGAACCCGGUAGGAUAUAUUGUGGGCAGGCGUGGAACGACAUGAGGAUCACCCAUGUAAUUUAGGUAGAAGGGCCGAGAGAUU [Excl-NG2-LRO13] (Eterna round: R96, puzzle: Exclusion NG 2)
apparent KD of MS2 coat protein (input ligand: FMN 200 uM): 22.9 nM | apparent KD of MS2 coat protein [4]: 21.7 nM | apparent KD of MS2 coat protein (input ligand: none): 37.3 nM

GUGUAGUCAGGAUAUACAUAGGAAGAUAAUAUAAUAUAAGUACAUGAGGAUCACCCAUGUAGAAGGGACAGUGU [Excluse me!! 9 - Jieux - Exclusion 2] (puzzle: Exclusion 2)
apparent KD of MS2 coat protein [2]: 35.6 nM

UUUUUGUAUGAAGGAUAUACUUAACAUGAGGAUCACCCAUGUGGUGUUGUGAGUGAGUGAGUUUAGUAGAAGGUCAAUUCUUUU [JMF's solution 88] (Eterna round: R96, puzzle: Exclusion NG 2)
apparent KD of MS2 coat protein (input ligand: FMN 200 uM): 604 nM | apparent KD of MS2 coat protein [4]: 275 nM | apparent KD of MS2 coat protein (input ligand: none): 454 nM

GGAGAGUCAGGAUAUCGAAGGUAGAGAAGAGGAGAGUGGUACGAGAAGGGACAUGAGGAUCACCCAUGUAGGUG [JR_Exclusion4)Sub011] (puzzle: Exclusion 4)
apparent KD of MS2 coat protein [1]: 457 nM | apparent KD of MS2 coat protein [2]: 645 nM | apparent KD of MS2 coat protein [3]: 452 nM

UUUUUGGUAGGAUAUACAUGAGGAUCACCCAUGUCCCACCCGUUACCUAUGACCAUAUGUAGAAGGACCAUUUC [Exy#11] (Eterna round: R97, puzzle: Exclusion 3)
apparent KD of MS2 coat protein (input ligand: FMN 200 uM): 24.6 nM | apparent KD of MS2 coat protein (input ligand: none): 21.3 nM

CUCUUGGCAGGAUAUGCUUUUUUAGACAUGAGGAUCACCCAUGUGAUGAAUAUUGGGUUCGCAGAAGGGCCUGAAU [JR_E5_Sub040] (puzzle: Exclusion 5)
apparent KD of MS2 coat protein [2]: 48.4 nM

CUGAGUAGUCAGGAUAUGUGGUACAAAAGUACUGCAGAAGGGAUUACAUGAGGAUCACCCAUGUUAUCUUCAUG [Omei Ex6 B19] (Eterna round: R97, puzzle: Exclusion 6)
apparent KD of MS2 coat protein (input ligand: FMN 200 uM): 368 nM | apparent KD of MS2 coat protein (input ligand: none): 144 nM

ACCUCACAUGAGGAUCACCCAUGUCAGGAUAUACAAACCGUGAUAAGACACGGUCGUAGUAGAAGGGACUAUGG [Xerereonte] (puzzle: Exclusion 1)
apparent KD of MS2 coat protein [2]: 98.8 nM

AAGGGUGCCCUUAGAAAGACAUGAGGAUCACCCAUGUAGACUGAGGAUAUCCACUCCUAAGGACCGGAGAAGGCAGUGUAAUGC [Qubion] (Eterna round: R96, puzzle: Exclusion NG 3)
apparent KD of MS2 coat protein (input ligand: FMN 200 uM): 16.9 nM | apparent KD of MS2 coat protein [4]: 13.8 nM | apparent KD of MS2 coat protein (input ligand: none): 18.2 nM

AGGUGUAGAGGAUAUCUCUUCUCUCACAUGAGGAUCACCCAUGUCCUGGGUACCUGGGAGAGAGAAGGCUACACCA [Omei Ex5 D12] (Eterna round: R97, puzzle: Exclusion 5)
apparent KD of MS2 coat protein (input ligand: FMN 200 uM): 1060 nM | apparent KD of MS2 coat protein (input ligand: none): 2460 nM

UAUUAGCAAGCGAGAUCUCACAUGAGGAUCACCCAUGUGCUCGUCUUAUAAGGUACUGUGACGAGAGUCACGGUACC [Mat - Sensor, turn-off var - Eli Mod - D37] (Eterna round: R97, puzzle: Sensor, turn-off variant 1)
apparent KD of MS2 coat protein (input ligand: FMN 200 uM): 13 nM | apparent KD of MS2 coat protein (input ligand: none): 14.1 nM

AAAUGCGAGCGAGGAUAUCAGAAAGGAAGUGUAUGAGAAGGCGCACCGCGGGUAUCCGGACAUGAGGAUCACCCAUGUAGGCUC [PowerStrip EXNG 1.28] (Eterna round: R96, puzzle: Exclusion NG 1)
apparent KD of MS2 coat protein (input ligand: FMN 200 uM): 23.2 nM | apparent KD of MS2 coat protein [4]: 17.8 nM | apparent KD of MS2 coat protein (input ligand: none): 29.5 nM

GUAAACGCAGAGGAUAUUUCAGAUCCUAGCUGCAAAGAAGGCUGCACAUGAGGAUCACCCAUGUGGUCCUGAAG [Mat - Exclusion 6 - Eli Mod - D2] (Eterna round: R97, puzzle: Exclusion 6)
apparent KD of MS2 coat protein (input ligand: FMN 200 uM): 191 nM | apparent KD of MS2 coat protein (input ligand: none): 68.2 nM

AAAUACAAGUAAAGAUCCUACAUGAGGAUCACCCAUGUGCUCGUCUUGUAAAGUACUAUCACGAAAGUGAUAGUACU [Mat - Sensor v3 - turn-off var 1 - Eli Mod - D87] (puzzle: Sensor v3, turn-off variant 1)
apparent KD of MS2 coat protein [1]: 45.3 nM | apparent KD of MS2 coat protein [2]: 29.7 nM | apparent KD of MS2 coat protein [3]: 47.7 nM

AUAUAGCGAGGAUAUACAUGAGGAUCACCCAUGUGGUAGUAGAUACGGUAGAGAUAGUGUAGAAGGCGCUAUGA [EX3 #9] (Eterna round: R97, puzzle: Exclusion 3)
apparent KD of MS2 coat protein (input ligand: FMN 200 uM): 226 nM | apparent KD of MS2 coat protein (input ligand: none): 233 nM

CGACCACAUGUAAACUGACACAUGAGGAUCACCCAUGUCAAGCUACGUUAGACUAAGCUCGCUACUACUCGUCUUAA [Eternabot (L2) Solution 4] (Eterna round: R97, puzzle: Sensor, turn-off variant 1)
apparent KD of MS2 coat protein (input ligand: FMN 200 uM): 66.8 nM | apparent KD of MS2 coat protein (input ligand: none): 69.8 nM

AGUCAGUCAGGAUAUCAAAUCCGUGGACCUUACGAUGCGGCUGAGAAGGGACAUGAGGAUCACCCAUGUUGGGU [Eternabot (L2) Solution 27] (Eterna round: R97, puzzle: Exclusion 4)
apparent KD of MS2 coat protein (input ligand: FMN 200 uM): 60.8 nM | apparent KD of MS2 coat protein (input ligand: none): 66.5 nM

UUGCUCCCUUAGUACUCUACAAGUUUUUUGUUCGUUUUAACAUGAGGAUCACCCAUGUCUAGUGGAUCUGAUCGGGU [JL ViennaUCT Isreen mod 5] (puzzle: Sensor v3, turn-off variant 2)
apparent KD of MS2 coat protein [1]: 172 nM | apparent KD of MS2 coat protein [2]: 336 nM | apparent KD of MS2 coat protein [3]: 178 nM

AACCGGCGGACCGAAGCUUUUUGCUUGUUUUAUACUACUACAUGAGGAUCACCCAUGUCGUGGUGGUCUGUUGUAGA [Bibe] (puzzle: Sensor v3, turn-off variant 2)
apparent KD of MS2 coat protein [1]: 38.9 nM | apparent KD of MS2 coat protein [2]: 15.7 nM | apparent KD of MS2 coat protein [3]: 33.2 nM

GGUUGGCGAGGAUAUACAUGAGGAUCACCCAUGUGGUCCUGUGGCUGAUCAAGCCUAUGUAGAAGGCGCAAAUC [salish99_ex3_r4_012] (Eterna round: R97, puzzle: Exclusion 3)
apparent KD of MS2 coat protein (input ligand: FMN 200 uM): 137 nM | apparent KD of MS2 coat protein (input ligand: none): 257 nM

GUUUUAUAUGAAGGAUAUACUUAACAUGAGGAUCACCCAUGUGGUGUUGUGAGUGAGUGAGUUUAGUAGAAGGUCAAUGAUUUU [JMF's solution 77] (Eterna round: R96, puzzle: Exclusion NG 2)
apparent KD of MS2 coat protein (input ligand: FMN 200 uM): 1660 nM | apparent KD of MS2 coat protein [4]: 396 nM | apparent KD of MS2 coat protein (input ligand: none): 473 nM

CUAAAUCAUGUAGGAUAUGCGUGGCGAAGCUAUGCAGAAGGACAUGAGGAUCACCCAUGUCUUUCCGUCUGCGUACAGACGGGA [JL ENG1 1.20] (Eterna round: R96, puzzle: Exclusion NG 1)
apparent KD of MS2 coat protein (input ligand: FMN 200 uM): 151 nM | apparent KD of MS2 coat protein [4]: 14.5 nM | apparent KD of MS2 coat protein (input ligand: none): 21.2 nM

AGUAACCGUCACGAAAGUGAUGGUUACAUAAGCAUAUGUACAUGAGGAUCACCCAUGUCCUCAACUGCUCGUUUUAU [Sensor 3 - 56] (puzzle: Sensor v3, turn-off variant 2)
apparent KD of MS2 coat protein [1]: 292 nM | apparent KD of MS2 coat protein [2]: 612 nM | apparent KD of MS2 coat protein [3]: 349 nM

ACCUCACAUGAGGAUCACCCAUGUCAGGAUAUCUUUUAAAACACCAAUCGUGUCGCUGAGAGAAGGGACAUUAA [EX1 #23] (Eterna round: R97, puzzle: Exclusion 1)
apparent KD of MS2 coat protein (input ligand: FMN 200 uM): 20.5 nM | apparent KD of MS2 coat protein (input ligand: none): 16 nM

CUUUUGUGAGGAUAUCAGUAGUAAAUAAAUAAAAUUACUAUUGAGAAGGCACAUGAGGAUCACCCAUGUUCCUC [salish99_ex3_r3_088] (puzzle: Exclusion 4)
apparent KD of MS2 coat protein [2]: 33.9 nM

UCCAGUAUAUGGAGAUUUUACAUGAGGAUCACCCAUGUUGGGACAGCUUUUUGCUUGUCUUAUCCUACUUCGUGUGU [Design #4] (Eterna round: R97, puzzle: Sensor, turn-off variant 1)
apparent KD of MS2 coat protein (input ligand: FMN 200 uM): 51 nM | apparent KD of MS2 coat protein (input ligand: none): 56.3 nM

GCAGGAUAAGUGAGGAUAUACCUAUGGAUACAUAGGUAGAAGGCACAUGAGGAUCACCCAUGUUCCUUGCCUGC [Fiskers BMX 4 - 67] (puzzle: Brourd's mod of Exclusion 4)
apparent KD of MS2 coat protein [2]: 13.2 nM

AGGGACGGCUGAGGAUAUAUGUAGAGUGAGAUAGUAGAAGGCAGACAUGAGGAUCACCCAUGUAUCGGUCCUCAUAUCUCGUAU [Default title] (Eterna round: R96, puzzle: Exclusion NG 1)
apparent KD of MS2 coat protein (input ligand: FMN 200 uM): 14.3 nM | apparent KD of MS2 coat protein [4]: 15.9 nM | apparent KD of MS2 coat protein (input ligand: none): 17.7 nM

AAGUAGGCAGGAUAUACAUGAGGAUCACCCAUGUGCCUAUACAAGGUAAUCUUGGGAGGUAGAAGGGCCUACAA [ChP 13.04.2015 #3] (puzzle: Exclusion 3)
apparent KD of MS2 coat protein [2]: 33 nM
